From patent US20170355781A1 (CCAM BIOTHERAPEUTICS, published 2017)
Blank lines part the entries; values can stand above or below the molecule they belong to.

Assays:
[1] = molecular target: T1, human CEACAM1 on cells (human, UniProt P13688 35-526)
T1 construct: whole, on cells; Used for endogenous CEACAM1 (526mel, Malme 3M, SKmel5, G361, NK 92MI, primary cells) and for 721.221 transfectants; also called hCEACAM1
T1 sequence (looked up): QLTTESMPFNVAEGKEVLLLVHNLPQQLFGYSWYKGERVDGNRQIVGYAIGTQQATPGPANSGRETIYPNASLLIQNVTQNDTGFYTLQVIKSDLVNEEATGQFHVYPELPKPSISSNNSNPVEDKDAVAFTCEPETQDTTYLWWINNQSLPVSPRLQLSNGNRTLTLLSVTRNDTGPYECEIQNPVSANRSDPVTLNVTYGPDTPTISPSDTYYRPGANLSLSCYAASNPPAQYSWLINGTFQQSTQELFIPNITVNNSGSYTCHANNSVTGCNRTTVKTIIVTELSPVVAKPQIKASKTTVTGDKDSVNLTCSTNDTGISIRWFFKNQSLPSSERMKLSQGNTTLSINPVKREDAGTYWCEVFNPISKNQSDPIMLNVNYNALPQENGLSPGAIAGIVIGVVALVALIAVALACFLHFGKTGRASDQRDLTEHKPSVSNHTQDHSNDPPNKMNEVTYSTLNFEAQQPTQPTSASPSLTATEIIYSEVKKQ

[2] = molecular target: chimeric molecule composed of the extracellular portion of human CEACAM1 fused to mouse z-chain, on BW cells (human; mouse, UniProt P13688 35-428; P24161 31-164); experiment: cell-based or functional assay
[3] = molecular target: T2, recombinant purified human CEACAM1 (human, UniProt P13688 35-428, limits assumed); experiment: indirect ELISA on plate-bound purified human CEACAM1, double dilutions of CM10
T2 construct: also called purified hCEACAM1; Recombinant CEACAM1
T2 sequence (looked up): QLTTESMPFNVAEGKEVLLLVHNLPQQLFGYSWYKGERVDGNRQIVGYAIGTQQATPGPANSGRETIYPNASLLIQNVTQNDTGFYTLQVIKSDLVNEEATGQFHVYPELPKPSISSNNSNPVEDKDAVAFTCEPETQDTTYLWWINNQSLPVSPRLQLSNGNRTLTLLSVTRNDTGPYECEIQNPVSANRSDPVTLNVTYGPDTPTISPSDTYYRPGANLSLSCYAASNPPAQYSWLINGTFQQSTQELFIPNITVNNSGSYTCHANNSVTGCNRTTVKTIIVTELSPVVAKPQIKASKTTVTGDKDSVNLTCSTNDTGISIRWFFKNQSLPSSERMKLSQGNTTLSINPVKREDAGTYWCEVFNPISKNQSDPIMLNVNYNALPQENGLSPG
Description: The binding specificity of CM10 to human CEACAM1 was tested in ELISA assay using purified human CEACAM1. Indirect ELISA using 23 double dilutions of CM10 were used to generate specific binding curve. The results shown in FIG. 2 represent average O.D. from triplicate±SE. Similar results were obtain from other ten independent experiments.

[4] = molecular target: T2, recombinant purified human CEACAM1; experiment: SPR, Biacore 3000, antibody immobilized on CM5 chip, recombinant CEACAM1 flowed; three independent experiments
Description: (§1) Each antibody was immobilized onto a single channel of a CM5 sensor chip of Biacore3000 instrument by NHS-EDC coupling chemistry.
(§2) Recombinant CEACAM1 was flowed at 50 μl/min over the chip in various concentrations (0.19, 0.39, 0.78, 1.56, 3.12, 6.25, 12.5 and 25 nM). The running buffer was PBS-ET (10 mM p-buffer pH7.4, 150 mM NaCl, 3.4 mM EDTA and 0.005% tween 20).

[5] = molecular target: T2, recombinant purified human CEACAM1; experiment: SPR, Biacore 3000, antibody immobilized on CM5 chip, recombinant CEACAM1 flowed; average of three independent experiments
Description: as §1, §2

[6] = molecular target: T3, CEACAM4 transiently expressed on HEK 293T cells (human, UniProt O75871 36-244); experiment: flow cytometry, biotinylated CM10 plus Strep-Avidin APC on HEK 293T cells transiently expressing CEACAM-4
T3 construct: whole, on cells
T3 sequence (looked up): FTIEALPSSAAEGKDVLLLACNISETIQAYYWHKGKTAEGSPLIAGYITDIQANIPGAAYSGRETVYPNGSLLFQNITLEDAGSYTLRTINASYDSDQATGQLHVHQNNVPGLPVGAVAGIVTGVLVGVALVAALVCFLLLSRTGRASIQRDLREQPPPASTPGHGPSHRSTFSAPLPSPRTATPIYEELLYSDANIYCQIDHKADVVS
Description: A standard FACS protocol was used with CM10 conjugated to a Biotin molecule and Strep-Avidin APC as secondary agent. […] Empty histograms represent mAb staining while red histograms represent background staining. At least 10000 cells were used to analyze CM10 binding in each histogram. FAB was calculated by dividing the MFI of the stained cells in the MFI of the background staining.

[7] = molecular target: T1, human CEACAM1 on cells; experiment: blocking assay by FACS: SKMEL5 cells (CEACAM1 positive) pre-incubated with CM10 and washed, then soluble biotinylated CEACAM5 detected with streptavidin-APC
Description: CEACAM1 positive cell line (SKMel 5) was incubated with an isotype control or CM10 in various concentrations, unbound CM10 was washed twice, followed by incubation with or without soluble biotinylated CEACAM5. The binding of the biotinylated CEACAM5 to the cells was detected by a secondary strepavidin-APC and FACS analysis. The results represent the mean of duplicate wells±SE. Similar results were obtained in two other independent experiments.

- mouse IL-2 secretion (ELISA), BW/221+ co-culture, no CM10 [1]: 289 pg/mL
Molecule: chimeric molecule composed of the extracellular portion of human CEACAM1 fused to mouse z-chain, on BW cells (from UniProt P13688 35-428; P24161 31-164) (receptor)

- IC50 (read off the curve) of the block of mouse IL-2 secretion in the BW/221+ co-culture [2]: ~10 ng/mL
- EC50 (read off the curve) [3]: ~10 ng/mL
- Kd [4]: 4.07 to 5.05 nM
- Kd [5]: 4.56 nM
- binding result [6]: no binding (tested: 1 µg/ml)
- IC50 (read off the curve) [7]: ~100 ng/mL
B1: chimeric monoclonal antibody CM10 (antibody, human IgG1, kappa, V domains shown)
VH: QVQLQQSGAELVRPGTSVKVSCKASGYAFTNNLIEWVKQRPGQGLEWIGVINPGSGDTNYNEKFKGKATLTADKSSNTAYMQLSSLTSDDSAVYFCARGDYYGGFAVDYWGQGTSVTVSS
VL: DIQMTQTTSSLSASLGDRVTISCRTSQDIGNYLNWYQQKPDGTVKLLIYYTSRLHSGVPSRFSGSGSGTDYSLTISNLEQEDIATYFCQQGKSLPRTFGGGTKLEIKR
notes: made in CHO cells; PE-conjugated CM10 was used for the QuantiBRITE count; also called CM10.S91; anti CEACAM1 mAb, CM10
